Measurements: patent US20220033438A1 (GENOIMMUNE THERAPEUTICS, published 2022)

B1: wild-type polypeptide KLMGIVNKV (SEQ ID NO: 6) (peptide)
peptide: KLMGIVNKV
B2: KLMGIVYKV polypeptide (SEQ ID NO: 2) (peptide)
peptide: KLMGIVYKV
notes: Synthetic 9-mer made by solid phase synthesis; It is the fragment of the mutated (N136Y) Twist neighbor protein; also called mutated polypeptide
B3: KLMGIVYKL polypeptide (SEQ ID NO: 4) (peptide)
peptide: KLMGIVYKL
notes: Synthetic 9-mer; also called mutated polypeptide
B4: KMMGIVYKL polypeptide (SEQ ID NO: 5) (peptide)
peptide: KMMGIVYKL
notes: as for B3

Key:
[1] = biological target: T1, HLA-A0201 on T2 cells (human); test: T2 cell affinity test, 100 uM peptide, flow cytometry; FI=(MFI sample-MFI background)/MFI background
T1 construct: MHC class I molecule on TAP-deficient T2 cells; also called HLA-A0201 antigen
Method: (§1) 2 duplicate wells per group were used. […] The cells were collected by centrifugation at 200 g for 5 minutes. […] The mean fluorescence intensity (MFI) was then detected and analyzed by flow cytometry (BD FACSJazz™) and its software, as shown in FIG. 1.

[2] = biological target: T1, HLA-A0201 on T2 cells; test: T2 cell affinity test, 100 uM peptide overnight with human b2m, anti-HLA-A0201 FITC staining, flow cytometry
Method: as §1

Binder | FI (fluorescence index) [1] | MFI [2]
B1 | 1.89 | 648
B2 | 1.97 | 666
B3 | 2.23 | 724
B4 | 2.09 | 692
